Data taken from patent US20230126400A1 (Alector, published 2023).
One block for each binder: values may come before it.

Key:
[1] = target: T1, human MS4A6A ECL1 peptide (amino acid residues 68-85) (human); experiment: array SPR
T1 peptide: SASFSPNFTQVTSTLLNS
Description: (§1) Binding kinetic characterization of the anti-MS4A4A antibodies to MS4A4A ECL1 and ECL2 and to MS4A6A ECL1 and ECL2 peptides was performed by Carterra (South San Francisco, Calif.) using a proprietary array Surface Plasmon Resonance (SPR) instrument (MX-96) as follows. Antibodies were captured onto a CMD500D chip (Xantec # SPMX CMD500D) using the Continous Flow Microspotter (CFM). First, the chip was activated with 100 mM MES pH 5.5, 100 μL EDC (133 mM final), 100 μL of S-NHS (33.3 mM final), for 7 minutes. […] Anti-MS4A4A hydridoma supernatant or purified anti-MS4A4A antibodies were diluted in HBS-EP+ buffer (Teknova Cat # H8022) and then printed as duplicates with a 20 minute and a 5-minute print from the same sample solution.
(§2) These were then injected on the chip for five minutes, followed by a seven-minute dissociation period at 8 uL per second in a non-regenerative kinetic series. Duplicate measurements for each anti-MS4A4A antibody were taken to ensure reproducibility. Association rates (Kon) and dissociation rates (Koff) were calculated using a single one-to-one Langmuir binding model. The equilibrium dissociation constant (KD) was calculated as the ration of Koff/Kon.

[2] = target: T2, human MS4A6A ECL2 peptide (amino acid residues 138-185) (human); experiment: array SPR
T2 peptide: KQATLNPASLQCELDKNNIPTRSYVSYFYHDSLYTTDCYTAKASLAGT
Description: as §1, §2

human MS4A4A [3] = target: T3, human MS4A4A (human, UniProt Q96JQ5 1-239); experiment: FACS, HEK293, supernatant
Description: (§3) Positive clones identified above were expanded and then rescreened for specificity against HEK293 cells overexpressing human MS4A4A or cyno MS4A4A and parental HEK293 cells. These experiments were performed using supernatants from hybridoma clones which had undergone further expansion after initial selection. Briefly, previously prepared, cryopreserved transiently-transfected cells were labeled with LIVE/DEAD Fixable Aqua Dead Cell Stain Kit (ThermoFisher Scientific L34957) on ice for 30 minutes. After a wash with PBS, 2×10⁵ cells were aliquoted per well in 96-well U-bottom plates and incubated with 50 μl of culture supernatant on ice for 30 minutes. […] Following this secondary incubation, the cells were again washed twice with ice-cold FACS buffer and resuspended in a final volume of 200 μl of FACS buffer. Analysis was performed on a FACS Canto system (BD Biosciences), with sort gates drawn to exclude dead (Aqua-positive) cells. Positive clones (fold change of 1.8 or greater) were carried forward for further testing.

cynomolgus (cyno) MS4A4A [4] = target: T4, cynomolgus (cyno) MS4A4A (cynomolgus); experiment: FACS, HEK293, supernatant
T4 construct: also called cy4A; Cyno 4A
Description: as §3

[5] = target: T5, human MS4A4A ECL1 peptide (amino acid residues 86-98) (human); experiment: ELISA, hybridoma supernatant
T5 construct: synthetic peptide
T5 peptide: CMASNTYGSNPIS
Description: (§4) Briefly, 96-well polystyrene plates were coated with 1-10 μg/ml of synthetic free or BSA-conjugated peptides in coating buffer (0.05M carbonate buffer, pH9.6, Millipore Sigma C3041) overnight at 4° C. Coated plates were then blocked with ELISA diluent (PBS+0.5% BSA+0.05% Tween20) for 1-hour, washed 3×300 μL in PBST (PBS+0.05% Tween20, Thermo Cat#28352), and then the antibodies were added to the plate (50 μl/ml). After 30 mins incubation (room temperature, with shaking), the plates were washed 3×300 μL in PBST. […] After a final set of washes (3×300 μL in PBST), 50 μL of TMB substrate (BioFx TMBW-1000-01) was added and the reaction was then quenched after 5-10 mins with 50 μL of stop solution (BioFx BSTP-1000-01). The quenched reaction wells were detected for absorbance at 650 nm with a BioTek Synergy Microplate Reader using GENS 2.04 software.

[6] = target: T6, BSA-conjugated human MS4A4A ECL2 peptide (amino acid residues 159-179) (human, conjugated to BSA (site not stated)); experiment: ELISA, hybridoma supernatant
T6 construct: also called MS4A4A-ECL2 BSA conjugated peptide; BSA-MS4A4A-ELC2 peptide
T6 peptide: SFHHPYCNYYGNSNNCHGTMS
Description: as §4

human MS4A4A [7] = target: T3, human MS4A4A; experiment: FACS, U937 cells overexpressing human MS4A4A, 5 ug/ml
Description: (§5) Purified huIgG1 chimeric anti-MS4A4A antibodies were screened for their ability to differentially bind MS4A4A on U937 cells stably overexpressing human MS4A4A, U937 cells with human MS4A4A knocked out, and parental U937 cells. Differential binding to MS4A4A expressed on these cells was assessed by FACS analysis using 5 μg/ml of purified anti-MS4A4A chimeric antibodies, as described above.

human MS4A4A [8] = target: T3, human MS4A4A; experiment: FACS, parental U937 cells (endogenous human MS4A4A, not overexpressed), 5 ug/ml
Description: as §5

[9] = target: T5, human MS4A4A ECL1 peptide (amino acid …); experiment: peptide ELISA
Description: as §4, with “[…]” for “1-10 μg/ml”, “Cat#C3041)” for “C3041)”, “μl/well).” for “μl/ml).”, “Cat#TMBW-1000-01)” for “TMBW-1000-01)”, “Cat#BSTP-1000-01).” for “BSTP-1000-01).”, “650nm” for “650 nm”

[10] = target: T7, human MS4A4A ECL2 peptide (amino acid residues 159-179), free (human); experiment: peptide ELISA, supernatant
T7 construct: synthetic peptide; also called huMS4A4A-ELC2 free-peptide
T7 peptide: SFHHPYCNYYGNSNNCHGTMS

human MS4A4A [11] = target: T3, human MS4A4A; experiment: FACS, K562 cells, supernatant
Description: (§6) Positive clones identified in Example 22 above were expanded and then rescreened for specificity against U937, K562, and/or 300.19 cells stably overexpressing human MS4A4A or cyno MS4A4A and parental U937, K562, and/or 300.19 cells. These experiments were performed using supernatants from hybridoma clones which had undergone further expansion after initial selection. Briefly, stably transfected cells were labeled with LIVE/DEAD Fixable Aqua Dead Cell Stain Kit (ThermoFisher Scientific Cat#L34957) on ice for 30 minutes. […] 2×10⁵ cells were aliquoted per well in 96-well U-bottom plates and incubated with 50 μl of culture supernatant on ice for 30 minutes. […] Following this secondary incubation, the cells were again washed twice with ice-cold FACS buffer and resuspended in a final volume of 200 μl of FACS buffer. Analysis was performed on a FACS Canto system (BD Biosciences), with gates drawn to exclude dead (Aqua-positive) cells.
(§7) The APC ratio was calculated for each antibody as follows. […] For cell lines overexpressing human MS4A4A (h4A) or cyno MS4A4A (cy4A), the ration was calculated by comparing the binding measured to the binding observed on the corresponding parental cell lines.

human MS4A4A [12] = target: T3, human MS4A4A; experiment: FACS, U937 cells, supernatant
Description: as §6, §7

cynomolgus (cyno) MS4A4A [13] = target: T4, cynomolgus (cyno) MS4A4A; experiment: FACS, 300.19 cells, supernatant
Description: as §6, §7

- binding result [1]: no binding (tested: 2000 nM)
- binding result [2]: no binding (tested: 2000 nM)
- Human 4A:parental cell ratio (human MS4A4A [3]): 27.3 ratio
- Cyno 4A:parental cell ratio (cynomolgus (cyno) MS4A4A [4]): 8.49 ratio
- binding result [5]: no binding
- binding result [6]: no binding
B1: anti-MS4A4A antibody 4A-5 (antibody, V domains shown)
VH: EVKVEESGGGLVQPGGSMKLSCAASGFTFSDAWMDWVRQSPEKGLEWVAEIRSKTNSHATYYAESVKGRFTISRDDSKSSVYLQMNSLRAEDTGIYYCTVDYYGIFWGQGTLVTVSS
VL: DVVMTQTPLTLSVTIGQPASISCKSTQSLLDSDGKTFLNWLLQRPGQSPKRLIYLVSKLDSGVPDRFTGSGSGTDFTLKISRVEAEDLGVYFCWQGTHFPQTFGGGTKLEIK
notes: murine hybridoma antibody

- ratio of MFI over secondary antibody alone (human MS4A4A [7]): 18.5 ratio
- ratio of MFI over secondary antibody alone (human MS4A4A [8]): 1.1 ratio
B2: anti-MS4A4A antibody 4A-206, huIgG1 chimera (antibody, V domains shown)
VH: EVKLVESGGGLVKPGGSLKLSCAASGFTFSSYTMSWVRQTPEKRLEWVASLSSGGSTYYPDSVKGRFTISRDNARNILYLQMSSLRSEDTAMYYCAKDYYVSSYRWYFDVWGAGTTVTVSS
VL: DIQMTQITSSLSASLGDRVTISCRASQDISNYLNWYQQKPDGTVKLLIYYTSNLHSGVPSRFSGSGSGTDYSLTISNLEQEDIATYFCQQGKSFPWTFGGGTKLEIK

- ratio of MFI over secondary antibody alone (human MS4A4A [7]): 19.8 ratio
- ratio of MFI over secondary antibody alone (human MS4A4A [8]): 1.1 ratio
B3: anti-MS4A4A antibody 4A-209, huIgG1 chimera (antibody, V domains shown)
VH: EVKLLESGGGLVQPGGSLKLSCAASGFDFSRYWMSWVRQAPGKGLEWIGEIKSDSSTINYTPSLKDKFIISRDNAKNTLYLQMSKVRSEDTALYYCARRGFYDYDAWFAYWGQGTLVTVSS
VL: QIVLTQSPTLMSASPGEKVTMTCSASSSVTYMYWYQQKPRSSPKPWIYLTSNRASGVPTRFSGSGSGTSHSLTISYMEAEDAATYYCQQWSSNPPTFGAGTKLELR

- binding result [9]: no binding
- binding result [10]: no binding
- fold increase in MFI (human MS4A4A [11]): > 2 fold
- fold increase in MFI (human MS4A4A [12]): > 2 fold
- fold increase in MFI (cynomolgus (cyno) MS4A4A [13]): > 2 fold
B4: anti-MS4A4A antibody 4A-208 (murine) (antibody, V domains shown)
VH: EVHLQQSGAEVVKPGASVKLSCTASGFNIKDTYIHWVMQRPEQGLEWIGRIDPANDNTKYDPKFQGKATITSDTSSNTAYLHLSSLTSEDTAVYYCARIAYGSWALDYWGQGTSVTVSS
VL: DIVMTQSQKFMSTSVGDRVIVTCKASQNVDTNVAWYQQKPGQSPKTLIYSASFRYSGVPDRFTGSGSGTDFTLSISNVQSEDLAEYFCQQYNSYPWTFGGGTKLEIK
notes: murine hybridoma antibody

- ratio of MFI over secondary antibody alone (human MS4A4A [7]): 19.9 ratio
- ratio of MFI over secondary antibody alone (human MS4A4A [8]): 1.1 ratio
B5: anti-MS4A4A antibody 4A-208, huIgG1 chimera (antibody, V domains shown)
VH: B4 VH
VL: B4 VL

- ratio of MFI over secondary antibody alone (human MS4A4A [7]): 10 ratio
- ratio of MFI over secondary antibody alone (human MS4A4A [8]): 1.1 ratio
B6: anti-MS4A4A antibody 4A-207, huIgG1 chimera (antibody, V domains shown)
VH: EVNLEESGGGLVQPGGSMKLSCVASGFTFNNYWMNWVRQSPEKGLEWVAEIRLKSNNYATHYAESVKGRFTISRDDSKSSVYLQMNNLRPEDTAIYYCTTDPPMDYSGQGTPVTVSS
VL: QIVLTQSPAFMSASPGEKVTITCSASSSVSYMHWFQQKPGTSPKLWIYSTSNLVSGVPDRFSGSGSGTSYSLTISRMEAEYAATYYCHQRTSYPWTFGGGTKLEIK

- binding result [9]: no binding
- binding result [10]: no binding
- fold increase in MFI (human MS4A4A [12]): > 2 fold
- fold increase in MFI (cynomolgus (cyno) MS4A4A [13]): > 2 fold
B7: anti-MS4A4A antibody 4A-217 (murine) (antibody, V domains shown)
VH: EVKLVESGGGLVKPGGSLKLSCAASGFTFSSYGMSWVRQTPEKRLEWVAHISGGGTFTHYPDSVKGRFTISRDNAKNNLYLQMSSLRSEDTALYYCAREGAGTRFAYWGQGTLVTVSS
VL: DIQMTQTTSSLSASLGDRVTISCRPSQDISNSLNWYQQKPDGTVKLLIYSTSKLHSGVPSRFSGSGSGIDYSLTISNLEQEDIATYFCQQDYTLPWTFGGGTKLDVK
notes: murine hybridoma antibody

- ratio of MFI over secondary antibody alone (human MS4A4A [7]): 23.6 ratio
- ratio of MFI over secondary antibody alone (human MS4A4A [8]): 1.1 ratio
B8: anti-MS4A4A antibody 4A-217, huIgG1 chimera (antibody, V domains shown)
VH: B7 VH
VL: B7 VL

- binding result [9]: no binding
- binding result [10]: no binding
- fold increase in MFI (human MS4A4A [11]): > 2 fold
- fold increase in MFI (human MS4A4A [12]): > 2 fold
- fold increase in MFI (cynomolgus (cyno) MS4A4A [13]): > 2 fold
B9: anti-MS4A4A antibody 4A-205 (murine) (antibody, V domains shown)
VH: EVQLVESGGDLVKPGGSLKLSCAASGFTFSHYGMSWVRQTPDKRLDWVATIGRDGIHTDYRDSVKGRFTISRDNAKNTLYLQMGSLKSEDSAIFYCARHLYYGLYYSMDYWGQGTSVTVSS
VL: ENVLTQSPAIMSASPGEKVTMTCSASSSVSFMYWYQQKSSTSPKLWIYDTSKLASGVPGRFSGSGSGNSYSLTISSMEAEDVATYYCFQGSGYPLTFGSGTKLEIK
notes: murine hybridoma antibody

- ratio of MFI over secondary antibody alone (human MS4A4A [7]): 13 ratio
- ratio of MFI over secondary antibody alone (human MS4A4A [8]): 1.1 ratio
B10: anti-MS4A4A antibody 4A-213, huIgG1 chimera (antibody, V domains shown)
VH: QVQLKESGPGLVAPSQSLSITCTVSGFSLTSYGVHWVRQPPGKGLEWLGVIWVGGSTNYNSALMSRLSISKDNSKSQVFLKMNSLQTDDTAMYYCARAVYYYGSSYYFDYWGQGTTVTVSS
VL: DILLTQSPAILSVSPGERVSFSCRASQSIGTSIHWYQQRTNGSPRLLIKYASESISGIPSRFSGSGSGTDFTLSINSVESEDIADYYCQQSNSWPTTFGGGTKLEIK
